In one data set the target is T1, ICAM-1 (CD54) (Homo sapiens, UniProt P05362).
T1 construct: host or cells: Molt3 human T-cell leukemia line
The data set is described as follows: Antibody binding assay (FACS): anti-ICAM-1 mAb (mouse IgG anti-human CD54) binding to Molt3 T-cells after peptide incubation. The class given is cell-based. The conditions noted are these: for Fluorescence, % change from control of the medium fluorescence intensity: mAb CD54.

In data set [1] the test system is Molt3 cells. Briefly: Homotypic adhesion assay (MDHC-induced clumping of T-cells). As to conditions: 10 μM MDHC. The data set is classed as cell-based, human. The arrangement: key to Homotypic Adhesion Amount: Any sample having a score of "+++" or "++++" is considered to have a significant ability to modulate T-cell binding interaction; Any sample having a score of "+++" or "++++" is considered to have a significant ability to modulate T-cell binding interaction. How it is done: As before, the T-cells were Molt3 cells prepared in RPMI 1640 growth medium according to Example 2. An approximate 7 ml aliquot of the growth medium was centrifuged (Jouan Model GT422 at 1400 rpm for 6.5 minutes), and the supernatant fluid was decanted. The pellet was resuspended in the supernatant fluid at titer of about 1×10^6 cells/ml, with the excess supernatant fluid being retained for future resuspension of the peptides.
A 228 nmol quantity of the LJCRF-1 (Sequence ID No. 6) peptide described in Table 1 was diluted with the supernatant fluid to a 500 μl final volume, and filtered in microcentrifuge filter tubes (0.22 micron filter; 3500 rpm for 6 minutes). Serial dilution of the filtered peptide with supernatant fluid was conducted to yield five 125 μl peptide solutions to give respective concentrations of about 115 μM, 230 μM, 460 μM, 910 μM, and 1.82 mM. At each concentration, a 125 μl portion of the cell suspension was pipetted into each 125 μl portion of the peptide solutions to yield combined samples having a 250 μl volume. The 250 μl samples were seeded into individual wells in a 48-well tissue culture grade plate (from Costar of Cambridge, Md.) and incubated at 37° C. for 30 minutes. Each sample received 5 μl of 2,5-methyl dihydroxy cinnamate ("MDHC") for a 10 μM final concentration, and was subsequently incubated for about 10 hours at 37° C. MDHC induces intercellular clumping of human T-cells (Tibbetts, Butler, and Benedict, submitted) by activating the LFA/ICAM binding interaction between respective cells.
Pictures were taken of five random fields per sample using an Olympus photomicroscope having a 0.8 mm field at 400×magnification, and a 3.2 mm field of view at 100×magnification. The amount of clumping observed was quantified by determining the mean number of clumps per field ± a standard error.
FIGS. 5, 6, and 7 replicate photographs taken from exemplary peptide assays. FIG. 5 is a photograph of the control sample having no peptides and no MDHC added, from which essentially no clumping of cells is observed. […] Any sample having a score of "+++" or "++++" is considered to have a significant ability to modulate T-cell binding interaction. This is similar to results obtained by incubating similarly treated cells with antibody against either LFA or ICAM.
The homotypic adhesion assay assesses the actual ability of a candidate peptide to modulate the ability of T-cells to adhere with one another.

In data set [2] the test system is Molt3 cells. The data set is described as follows: Cell metabolic assay (MTT). The data set is classed as cell-based. As to the method: After taking the photographs in Example 3 (and in some instances no photographs were taken), cell metabolic activity was assessed by an MTT assay. A 37.5 μl portion of MTT dye (purchased from SIGMA of St. Louis, Mo.), i.e., 3-[4,5-dimethyl thiazole-2yl]-2, 5- diphenyl tetrazolium bromide; thiazolyl blue) was added to each well, and incubated with the cells at 37° C. for about six hours. After incubation, a 250 μl quantity of a MTT solubilization solution (of a type that may be purchased from either Fischer Scientific of St. Louis, Mo. or BCD Labs of Lawrence, Kans.) was added to each well, and incubated with the cells at room temperature overnight. In the morning, the spectrophotometric absorption of each plate was determined at 570 nm in a microplate ELISA reader manufactured by Cambridge Technologies of Water-town, Mass., in order to assess cell viability as an indicator of potential peptide toxicity.

For the next data set, the target named is T2, ICAM-1 (Homo sapiens, UniProt P05362).
T2 construct: host or cells: Molt3 human T-cell leukemia line
T2 sequence (P05362 28-532): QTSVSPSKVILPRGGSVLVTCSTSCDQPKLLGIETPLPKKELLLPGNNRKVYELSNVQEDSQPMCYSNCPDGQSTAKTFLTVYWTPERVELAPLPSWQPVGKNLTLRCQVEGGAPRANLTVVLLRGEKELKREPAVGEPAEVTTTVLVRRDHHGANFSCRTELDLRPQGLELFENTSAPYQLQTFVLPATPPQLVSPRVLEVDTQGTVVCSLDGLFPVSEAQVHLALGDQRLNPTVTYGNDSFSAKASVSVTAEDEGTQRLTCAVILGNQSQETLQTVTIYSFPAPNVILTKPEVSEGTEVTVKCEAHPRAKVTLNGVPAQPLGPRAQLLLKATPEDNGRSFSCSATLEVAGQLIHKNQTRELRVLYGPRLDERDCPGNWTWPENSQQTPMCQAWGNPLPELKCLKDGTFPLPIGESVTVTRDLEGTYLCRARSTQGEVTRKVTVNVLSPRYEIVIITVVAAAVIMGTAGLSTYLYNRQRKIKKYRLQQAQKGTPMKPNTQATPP
Briefly: Conformation modulator assay: flow cytometry of FITC-labeled RB-1-88 binding to T-cells after pre-incubation with first peptide. The class given is cell-based. The conditions noted are these: first peptide 4550 μM. As to the method: The antibody binding assay of Example 2 was twice repeated at a peptide concentration of 4550 μM, each time substituting a 455 nmol quantity of synthetic peptide selected from the group consisting of ICAM-based peptide SC-3-111 (Sequence ID No. 10) and LFA-based peptide LJCRF-4 (Sequence ID No. 16) in respective assays. Following incubation for 30 minutes at 37° C. after introduction of the first peptides, both incubated culture were supplemented by an additional quantity of FITC-labeled RB-1-88 (Sequence ID No. 19) peptide in a quantity sufficient to provide a 1.90 μM concentration in the cell/PBS solution.
Following addition of the RB-1-88 (Sequence ID No. 19) peptide, the mixture was incubated for 30 minutes at 4° C., washed three times with 500 μl PBS/BSA, resuspended in 500 μl PBS/BSA and immediately subjected to a flow cytometer analysis as before. Table 3 presents the results of this analysis, which are also depicted in FIGS. 8 (SC-3-111) and 9 (LJCRF-4).
Background: In flow cytometry, cells or beads pass a laser one at a time.

A further data set deals with T3, LFA-1 (CD11a) (Homo sapiens, UniProt P20701).
T3 construct: host or cells: Molt3 human T-cell leukemia line
T3 sequence (P20701 26-1170): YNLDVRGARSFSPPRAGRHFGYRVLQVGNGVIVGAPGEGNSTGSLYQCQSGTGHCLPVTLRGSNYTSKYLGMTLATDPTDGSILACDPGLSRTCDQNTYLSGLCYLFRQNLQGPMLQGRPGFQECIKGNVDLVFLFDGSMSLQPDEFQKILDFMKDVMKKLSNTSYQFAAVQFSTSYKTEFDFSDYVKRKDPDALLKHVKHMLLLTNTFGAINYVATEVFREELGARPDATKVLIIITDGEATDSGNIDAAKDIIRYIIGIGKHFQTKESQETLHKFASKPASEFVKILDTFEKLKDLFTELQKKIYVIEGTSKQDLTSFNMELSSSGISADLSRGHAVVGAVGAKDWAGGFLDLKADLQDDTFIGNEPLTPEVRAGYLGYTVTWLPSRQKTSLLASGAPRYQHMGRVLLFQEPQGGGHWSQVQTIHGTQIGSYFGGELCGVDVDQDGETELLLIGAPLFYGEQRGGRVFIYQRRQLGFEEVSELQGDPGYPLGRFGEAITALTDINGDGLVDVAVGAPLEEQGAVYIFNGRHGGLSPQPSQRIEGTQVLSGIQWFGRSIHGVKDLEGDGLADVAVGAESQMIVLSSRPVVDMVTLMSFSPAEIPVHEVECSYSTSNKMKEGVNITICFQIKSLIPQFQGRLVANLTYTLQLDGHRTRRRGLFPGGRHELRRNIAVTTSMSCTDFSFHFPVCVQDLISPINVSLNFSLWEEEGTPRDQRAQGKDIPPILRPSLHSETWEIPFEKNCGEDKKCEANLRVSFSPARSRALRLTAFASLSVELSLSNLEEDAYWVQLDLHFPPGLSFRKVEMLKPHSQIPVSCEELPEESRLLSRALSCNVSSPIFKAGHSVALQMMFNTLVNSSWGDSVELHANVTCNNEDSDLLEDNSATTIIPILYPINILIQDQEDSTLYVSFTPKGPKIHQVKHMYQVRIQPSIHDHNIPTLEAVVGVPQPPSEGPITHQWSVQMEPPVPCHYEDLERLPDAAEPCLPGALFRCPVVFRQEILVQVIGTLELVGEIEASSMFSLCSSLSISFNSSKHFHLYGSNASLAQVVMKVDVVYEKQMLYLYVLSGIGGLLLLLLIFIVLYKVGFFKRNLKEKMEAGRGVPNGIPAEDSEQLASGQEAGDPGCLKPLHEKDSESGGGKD
T3 sequence (P05107 23-769 partner): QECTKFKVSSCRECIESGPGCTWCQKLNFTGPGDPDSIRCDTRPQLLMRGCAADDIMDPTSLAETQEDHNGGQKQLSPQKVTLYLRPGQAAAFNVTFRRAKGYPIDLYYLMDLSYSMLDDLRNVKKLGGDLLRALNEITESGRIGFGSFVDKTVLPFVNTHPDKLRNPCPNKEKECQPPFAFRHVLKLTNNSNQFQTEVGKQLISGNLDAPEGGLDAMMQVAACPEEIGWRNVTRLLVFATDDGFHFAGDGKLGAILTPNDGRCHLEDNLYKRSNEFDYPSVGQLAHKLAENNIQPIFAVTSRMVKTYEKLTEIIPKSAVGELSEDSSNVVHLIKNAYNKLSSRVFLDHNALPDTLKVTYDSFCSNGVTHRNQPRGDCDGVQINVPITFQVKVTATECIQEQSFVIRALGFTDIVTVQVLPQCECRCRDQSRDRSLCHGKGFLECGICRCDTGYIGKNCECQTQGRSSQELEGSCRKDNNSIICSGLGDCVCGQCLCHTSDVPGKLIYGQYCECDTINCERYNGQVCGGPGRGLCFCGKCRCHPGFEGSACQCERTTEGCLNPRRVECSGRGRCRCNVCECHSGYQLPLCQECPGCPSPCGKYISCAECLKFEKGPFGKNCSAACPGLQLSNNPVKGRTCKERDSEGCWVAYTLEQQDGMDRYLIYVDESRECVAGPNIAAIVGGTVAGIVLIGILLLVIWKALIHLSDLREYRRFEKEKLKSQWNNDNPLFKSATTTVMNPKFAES
Briefly: Antibody binding assay (FACS): anti-LFA-1 mAb (mouse IgG anti-human CD11a) binding to Molt3 T-cells after peptide incubation. The class given is cell-based. As to conditions: for Fluorescence, % change from control of the medium fluorescence intensity: mAb CD11a, average ± standard error of runs. How it is done:
A 1 ml quantity of the Molt3 inoculum was warmed to 37° C. and transferred by pipette into about 25 ml of a growth culture medium including RPMI 1640 lymphocyte growth medium (Fisher Scientific of St. Louis, Miss.) mixed with 10% by volume fetal calf serum, 100 units/ml penicillin, 100 μg/ml streptomycin and 2 mM glutamine. The inoculated culture was incubated for three to four days at 37° C. under a normal atmosphere having about 5% CO2 added thereto. This culture was capable of being maintained indefinitely by siphoning away the top (non-cell containing) layer and adding 50 ml (or more) of growth culture medium at intervals of three to four days.
An aqueous buffer solution including Dulbecco's phosphate buffered saline and bovine serum albumin ("-PBS/BSA solution") was prepared for use, and included a mixture of 200 mg KH2 PO4, 1.15 g Na2 HPO4, 100 mg CaCl2, 200 mg KCl, 100 mg MgCl2.6H2 O, 8 g NaCl, with distilled water added to a final 1 liter volume at room temperature, thus, forming a "PBS" solution of pH 7.4 to which was added 0.5% by weight bovine serum albumin.
An aliquot of about 7 ml was removed from the incubated culture medium and subjected to washing with the PBS/BSA solution. The washing procedure was initiated by placing the aliquot in a centrifuge (Model GT422 from Jouan, distributed Piruscio & Assoc. of Manchester, Miss.) at 1400 rpm for 6.5 minutes to separate the cells from the growth medium. The supernatant fluid was decanted, a 5 ml portion of PBS/BSA solution was transferred by pipette into the pellet, and the mixture was again centrifuged as before. The resulting supernatant fluid was decanted and the cells from the pellet were resuspended in PBS/BSA solution at a titer of about 1×10^6 cells/ml. A 500 μl portion of the solution containing the resuspended cells was placed in a microcentrifuge (Marathon 13K/M from Fisher Scientific of St. Louis, Miss.) at 3500 rpm for six minutes, to provide a washed pellet.
[…] The cells were incubated with the peptide cocktail at 37° C. for 45 minutes.
After incubation with the peptide cocktail, several antibodies were successively mixed into the incubated solution. A 75 μl portion of anti-IgM solution (a mixture of 10 μl of goat anti-human IgM stock purchased from Jackson Immuno Research of Westgrove, Pa.; and 65 μl of PBS/BSA solution) was added to the peptide cocktail for blocking of nonspecific binding of the secondary antibody. The resulting mixture was incubated for 10 minutes on ice. About 0.1 μg of a primary antibody including mouse IgG anti-human CD11a (purified according to conventional protocols at the University of Kansas Department of Pharmacology and Toxicology from an American Type Culture hybridoma cell line having Catalogue Number HB-202) was next stirred into the mixture, which was then incubated for 30 minutes at room temperature. The incubated mixture was placed in a microcentrifuge at 3500 rpm for six minutes to remove the cells from the mixture, and the cell pellet was washed two times by adding 500 μl aliquots of PBS/BSA solution and microfuging to remove non-bound antibodies from the cells as before. The resulting washed pellet was resuspended in 100 μl of a secondary antibody cocktail including 5 μl of fluorescein isothiocyanate ("FITC") labeled goat anti-mouse IgG (from CALTAG of South San Francisco, Calif.) and 95 μl of PBS/BSA solution. The resulting solution was incubated for 30 minutes at room temperature in the dark.
The incubated solution including the secondary antibody cocktail was microfuged at 3500 rpm for six minutes to remove the cells from the solution, and the cell pellet was washed two times with 500 μl portions of PBS/BSA solution, as before, to remove unbound antibodies. […]

Data set [3] concerns Molt3 cells. The data set is described as follows: Homotypic adhesion assay (MDHC-induced clumping of T-cells). The data set is classed as cell-based, human. As to conditions: 10 μM MDHC, listed as LJCRF-2.

Entries after “also recorded” stand apart in the source; their conditions may differ.

T1 sequence (P05362 28-532): as the sequence (P05362 28-532) above

On to “LJCRF-4: LFA-1β based modulator peptide, Sequence ID No. 16 (DLSYSLDDLRNVKKLGGDLLRALNE)”, for which, in the data set with ICAM-1 (CD54) (FIG. 4, peptide 4550 μM), the “effect on anti-ICAM-1 mAb binding” value is reported as “promote the specific antibody binding”. The “Fluorescence, % change from control of the medium fluorescence intensity” value with ICAM-1 (CD54) (peptide 2275 μM, average ± standard error of runs) is reported as “+3 ± 1%”; with ICAM-1 (CD54) (peptide 6825 μM, 1 run), “+521%”. The “median peak curve shift (enhancement)” value with ICAM-1 (CD54) (single run of FIG. 4, peptide 4550 μM, anti-ICAM antibody) is listed as “+447%”. Besides, the “Homotypic Adhesion Amount” value in the data set on Molt3 cells [1] (peptide 115 μM) was “+++”; in the data set with Molt3 cells [1] (peptide 230 μM), “+++”; in the data set on Molt3 cells [1] (peptide 460 μM), “++++”; in the data set with Molt3 cells [1] (peptide 910 μM), “++++”; in the data set with Molt3 cells [1] (peptide 1820 μM), “+++”. For the same substance, the “Homotypic Adhesion Effect” value in the data set on Molt3 cells [1] (peptide 115 μM) was “Enhance”; with Molt3 cells [1] (peptide 230 μM), “Enhance; also recorded: binding enhancers”; in the data set on Molt3 cells [1] (peptide 460 μM) it was “Block; also recorded: blockers of intercellular adhesion”; in the data set with Molt3 cells [1] (peptide 910 μM) it was “Block”; in the data set on Molt3 cells [1] (peptide 1820 μM) it was “Block”. Moreover, the “MTT % Viability” value with Molt3 cells [2] (peptide 115 μM) turned out to be 99%; in the data set on Molt3 cells [2] (peptide 230 μM) it was 101%; with Molt3 cells [2] (peptide 460 μM), 94%; in the data set with Molt3 cells [2] (peptide 910 μM), 60%; with Molt3 cells [2] (peptide 1820 μM), 11%. For the same substance, in the data set with ICAM-1 (then FITC-labeled RB-1-88 1.90 μM, shift vs control), the “FACS Analysis (RB-1-88 binding)” value is “+145%”. In addition, the “effect on binding of labeled peptide (RB-1-88 / LJCRF-6) to T-cell ICAM-1” value with ICAM-1 (FIGS. 8, 9) is listed as “synergistically increases binding; also recorded: significant T-cell binding enhancement; also recorded: significantly enhanced”.
Regarding “SC-3-152: ICAM-derived short-chain peptide, Sequence ID No. 11; modulator peptide (DQPKLLGIETPLPKKELLLPGNNRK)”, the “Fluorescence, % change from control of the medium fluorescence intensity” value was “+48 ± 8%” with LFA-1 (CD11a) (peptide 2275 μM) and -43 ± 7% with LFA-1 (CD11a) (peptide 4550 μM, negative = blocking). Besides, the “effect on antibody binding” value is “enhance such binding” in the data set with LFA-1 (CD11a) (peptide 2275 μM) and “block antibody binding” in the data set with LFA-1 (CD11a) (peptide 4550 μM). For the same substance, the results for the “Homotypic Adhesion Amount” value in the data set with Molt3 cells [1] (peptide 230 μM), with Molt3 cells [1] (peptide 910 μM) and with Molt3 cells [1] (peptide 1820 μM) were “+++”, “+++” and “++++”, respectively. The “Homotypic Adhesion Effect” value in the data set with Molt3 cells [1] (peptide 230 μM) is “Enhance”; in the data set on Molt3 cells [1] (peptide 460 μM), “Enhance”; with Molt3 cells [1] (peptide 910 μM), “Block”; in the data set with Molt3 cells [1] (peptide 1820 μM) it was “Block”; in the data set with Molt3 cells [3] (peptide 460 μM), “binding enhancers”; in the data set with Molt3 cells [3] (peptide 910 μM), “blockers of intercellular adhesion”. Moreover, the “MTT % Viability” value in the data set with Molt3 cells [2] (concentration not given) came out at 38%; in the data set on Molt3 cells [2] (peptide 230 μM), 38%; in the data set with Molt3 cells [2] (peptide 460 μM) it was 38%; in the data set with Molt3 cells [2] (peptide 910 μM), 38%; in the data set on Molt3 cells [2] (peptide 1820 μM), 43%.

The record behind these values is patent US5863889A, “ICAM-1/LFA-1 short-chain peptides and method of using same” (The University of Kansas, priority 1996, dated 1999).
